For eight molecules, Kd results are on record in PMC10636607 (2023).

Numbering of substitutions follows the chain as printed. Names may count otherwise. Like-named read-outs stand apart in the source and are kept apart here.

Common to all, as to assay: BLI
Experiment [1] deals with T1, biotinylated influenza hemagglutinin (HA) from H1N1 A/California/07/2009 (influenza A virus H1N1 …).
Experiment [2] has as its target T2, biotinylated C-terminal αTSR domain of P. falciparum circumsporozoite protein (P. falciparum, UniProt Q7K740 310-375, biotinylated).
T2 chain: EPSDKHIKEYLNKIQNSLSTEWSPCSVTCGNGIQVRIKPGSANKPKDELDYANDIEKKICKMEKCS

Experiment [3] addresses His6-tagged SARS-CoV-2 receptor-binding domain (SARS-CoV-2, UniProt P0DTC2 319-541).
Experiment [4] deals with T1, biotinylated influenza hemagglutinin …. The source holds these as a separate data set.
Experiment [5] concerns the target T3, biotinylated SARS-CoV-2 fusion peptide (SARS-CoV-2, biotin on the N-terminus).
T3 peptide: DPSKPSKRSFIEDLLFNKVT

Experiment [6] has as its target His-tagged HIV Env MPER peptide (HIV).
Experiment [7] has as its target HCV (isolate H77) E2 domain protein (hepatitis C virus (isolate H77)).

B1: 5J8 Fab (WT) (Fab, V domains shown)
VH: EVQLVESGPGLVKPSDILSLTCAVSGYSISSNYYWGWIRQPPGKGLEWIGSIYHSGSTYYKPSLESRLGISVDTSKNQFSLKLSFVSAADTAVYYCARHVRSGYPDTAYYFDKWGQGTLVTVSS
VL: SYVLTQPPSVSVAPGETARISCGGNNIGTKVLHWYQQTPGQAPVLVVYDDSDRPSGIPERFSGSNSGNTATLTISRVEVGDEADYYCQVWDISTDQAVFGGGTKLTVL
For B1, the Kd in experiment [1] stood at 4 nM.

B2: Fab234 (WT) (Fab, V domains shown)
VH: EVQLVESGGGLVKPGGSLRLSCAASGFNFSTHIMNWVRQAPGKGLEWVSSISSSGTYIYYADSMKGRFTISRDNPKNSLYLQMNSLRAEDTAVYYCARARGFIQFHYYMDVWGKGTTVAVSS
VL: SYVLTQPPSVSVAPGKTARITCGGNNIGSKSVHWHQQRPGQAPVLVVYDDKIRPSGIPERFSGSNSGNTATLIISRVEAGDEADYYCQVWHSSSDPVVFGGGTKLTVL
B2 came in with a Kd in experiment [2] of 0.2 nM.

B3: GAR12 Fab (WT) (Fab, V domains shown)
VH: EVQLVQSGGGLVQPGGSLRLSCAASGFTFSSYAMSWVRQAPGKGLEWVLSISGSGGSTYYADSVKGRFTISIDNSKKTVYLQMNSLRAEDTAVYYCAKSGEQQLVQAEYFHHWGQGTLVTVSS
VL: DIQMTQSPSTLSASVGDRVTITCRASQSIGRWLAWYQQKPGKAPKLLIYDASSLESGVPSRFSGSGFGTEFTLTISSLQPDDFATYYCQQCDSLLTFGGGTKLEIK
For the molecule B3, the equilibrium dissociation constant (Kd) in experiment [3] amounted to 3.5 nM.

B4: GAR12 Fab VL D50K (Fab, V domains shown)
VH: B3 VH
VL: B3 VL with D50K
Molecule B4 displayed a Kd in experiment [3] of 153 nM.

B5: 3E1 Fab (WT) (Fab, V domains shown)
VH: QVQLQESGPGLVKPSETLSLTCSVSGASISSYYWIWIRQPAGKGLEWIGRFYTSGSPNYNPSLRSRVTMSVDTSKNQFSLKLTSVTAADTAVYYCAREEHITFGGVIVRYWGQGTLVTVSP
VL: DIQMTQSPATLSASVGDRVSITCRASQSISSWLAWYQQKPGKAPKLLIYKASSLESGVPSRFSGSGSGSEFTLTISSLQPDDFAIYYCQQYNSYPWTFGQGTKVEIK
Molecule B5 displayed an equilibrium dissociation constant (Kd) in experiment [4] of 6.9 nM.

B6: COV44-62 Fab (WT) (Fab, V domains shown)
VH: QMQLMQSGAEVKKPGASVTVSCKASGDTFSDYRIHWVRQAPGQGLEWMGRMNPKSGDTNFAQKFQGRVTMTRDMSINTAYMTLSGLTFDDTALYYCASLLIVGGFDPLDDFEVWGQGTMVTISS
VL: QSALTQPPSASGSPGQSVTISCSGTSSDVGGYNFVSWYQHHPGKAPKILIYEVTKRPSGVPDRFSGSKSGNTASLTVSGLQAEDEADYYCSSYGGTNNLLFGGGTKLTVL
In turn, B6 showed a Kd in experiment [5] of 26 nM.

B7: 4E10 Fab (WT) (Fab, V domains shown)
VH: QVQLVQSGAEVKRPGSSVTVSCKASGGSFSTYALSWVRQAPGRGLEWMGGVIPLLTITNYAPRFQGRITITADRSTSTAYLELNSLRPEDTAVYYCAREGTTGWGWLGKPIGAFAHWGQGTLVTVSS
VL: EIVLTQSPGTQSLSPGERATLSCRASQSVGNNKLAWYQQRPGQAPRLLIYGASSRPSGVADRFSGSGSGTDFTLTISRLEPEDFAVYYCQQYGQSLSTFGQGTKVEVK
With B7, binding in experiment [6] was characterised by a dissociation constant (Kd) of 9.1 nM.

B8: HC84.26.5D Fab (WT) (Fab, V domains shown)
VH: VQPVQSGAEVKKPGSSVKVSCEASGGTHSNYVITWVRQAPGQGLEWMGGFIPDFRTAMYAQGFQGRVTITADESTSLAYMELTNLRSEDTAVYYCARGPLSRGYYDYWGPGTLVTVSS
VL: YVLTQPPSVSVAPGQTASITCSGDKLGDKYVSWYQQRPGQSPVLVLYQDSKRPSGIPERFSGSNSGNTATLTISGTQAMDEADYYCQAWDSSALVFGGGTKLTVL
B8: the dissociation constant Kd in experiment [7] was found to be 0.9 nM.
